Experimental data taken from PMC7763088, “Impact of Different Lipid Ligands on the Stability and IgE-Binding Capacity of the Lentil Allergen Len c 3” (Biomolecules, 2020).
Like-named read-outs stand apart in the source and are kept apart here.

Legend:
[1] = Circular dichroism spectroscopy of rLen c 3 (pH and heat stability, secondary structure); assay type: physicochemical; conditions: for random (secondary structure estimation from Far-UV CD spectra) / turn (secondary structure estimation from Far-UV CD spectra) / α-helix (secondary structure estimation from Far-UV CD spectra) / β-sheet (secondary structure estimation from Far-UV CD spectra): lipid 1 mM where added
Protocol: (§1) Circular dichroism spectra were recorded at different temperatures, using a J-810 spectropolarimeter (Jasco, Hachioji, Tokyo, Japan) in a 0.1 cm path length quartz cell (Hellma GmbH & Co. KG, Mullheim, Germany) in the 190–250 nm range, and 0.2, using solutions of rLen c 3 in 10 mM phosphate buffer, pH 7.4, or 150 mM sodium chloride, pH 2.5, simulated gastric fluid, at a concentration of 17 µM. Fatty acids or lysolipids were added at a final concentration of 1 mM. Each experiment was performed twice, independently.

[2] = system: pepsin; assay: In vitro gastric digestion (SDS-PAGE); assay type: in vitro ADME; conditions: pepsin, pH 2.0, 2 h
Protocol: Simulation of gastrointestinal digestion in vitro was performed as described in [15]. Briefly, gastric digestion was performed for 2 h, using 50 ng of pepsin (p) (Sigma) per 1 μg of rLen c 3 in 0.1 M HCl, pH 2.0 (final protein concentration 0.05 mM). For duodenal digestion, pH of the mixture resulting from gastric digestion was adjusted to 8.0 by addition of ammonium bicarbonate. The obtained mixture was incubated for 24 h at 37 °C with 2.5 ng of trypsin (t) (Promega, Madison, WI, USA) and 10 ng of α-chymotrypsin (ch) (Sigma) per 1 μg of the substrate. Degree of proteolysis was monitored by sodium dodecyl sulfate polyacrylamide gel electrophoresis (SDS-PAGE) under reducing conditions and reversed-phase high-performance liquid chromatography (RP-HPLC) on Luna C18 column (5 μm, 250 × 4.6 mm; Phenomenex, Torrance, CA, USA) at a flow rate of 0.5 mL/min, using a gradient of acetonitrile concentration from 5 to 65% for 45 min in 0.1% trifluoroacetic acid (TFA). Gel analysis was performed, using a densitometer. Electroblotting and subsequent N-terminal protein sequencing were performed as described. The protein was preheated at 100 °C for 30 min to study the effect of temperature on allergen stability. rLen c 3 was preloaded with various lipid ligands (LTP to lipid molar ratio 1:4) for 10 min, in order to investigate their effects on allergen resistance to proteolytic digest. […]

[3] = system: trypsin and α-chymotrypsin; assay: In vitro duodenal digestion after gastric digestion (SDS-PAGE densitometry); assay type: in vitro ADME
Protocol: (§2) Simulation of gastrointestinal digestion in vitro was performed as described in [15]. Briefly, gastric digestion was performed for 2 h, using 50 ng of pepsin (p) (Sigma) per 1 μg of rLen c 3 in 0.1 M HCl, pH 2.0 (final protein concentration 0.05 mM). For duodenal digestion, pH of the mixture resulting from gastric digestion was adjusted to 8.0 by addition of ammonium bicarbonate. The obtained mixture was incubated for 24 h at 37 °C with 2.5 ng of trypsin (t) (Promega, Madison, WI, USA) and 10 ng of α-chymotrypsin (ch) (Sigma) per 1 μg of the substrate. Degree of proteolysis was monitored by sodium dodecyl sulfate polyacrylamide gel electrophoresis (SDS-PAGE) under reducing conditions and reversed-phase high-performance liquid chromatography (RP-HPLC) on Luna C18 column (5 μm, 250 × 4.6 mm; Phenomenex, Torrance, CA, USA) at a flow rate of 0.5 mL/min, using a gradient of acetonitrile concentration from 5 to 65% for 45 min in 0.1% trifluoroacetic acid (TFA). Gel analysis was performed, using a densitometer. Electroblotting and subsequent N-terminal protein sequencing were performed as described. The protein was preheated at 100 °C for 30 min to study the effect of temperature on allergen stability. rLen c 3 was preloaded with various lipid ligands (LTP to lipid molar ratio 1:4) for 10 min, in order to investigate their effects on allergen resistance to proteolytic digest. As a control of the influence of lipid ligands on the work of proteolytic enzymes, the same reactions were carried out, using bovine α-casein (Sigma) as a substrate. Some independent experiments were performed in each case.

[4] = system: specific IgE in sera of allergic patients; assay: ELISA of sIgE binding to intact, heated or digested rLen c 3; design: species or system human
Protocol: Sera from allergic patients (n = 100) with food and pollen allergy were obtained from the Clinical Diagnostic Center of G.N. Gabrichevsky Research Institute for Epidemiology and Microbiology. The work with human sera was approved by the local ethical committees of this Institute (FS-99-01-009026, Moscow, Russia). The amount of specific IgE (sIgE) to allergen extracts in the patient sera was determined by using RIDA qLine Allergy Panel 1-4 (R-Biopharm, Pfungstadt, Germany). Screening of sera containing sIgE to peach Pru p 3 and Len c 3 was performed by ELISA. For that, plate wells (Corning Incorporated, Corning, NY, USA) were coated with recombinant allergen (0.5 μg/well) in 0.01 M phosphate buffered saline (PBS), pH 7.4, for 1 h, at 37 °C; saturated with 2% bovine serum albumin (SERVA, Heidelberg, Germany) in PBS buffer for 1 h, at 37 °C; and then incubated with the sera of allergic patients (1:4 dilution), for 2 h, at 37 °C. Specific IgE binding was detected by using peroxidase-conjugated anti-human IgE from goat (Sigma) (1:2000 dilution), and 3,3′,5,5′-tetramethylbenzidine (TMB) liquid substrate system for ELISA (Sigma). The enzymatic reaction was stopped after 30 min by 2 N H2SO4 and absorbance values were determined at 450 nm. Moreover, 0.01 M PBS with 0.05% Tween-20 was used as a washing solution on each step. For sIgE binding experiments with the intact or heated (at 100 °C for 30 min) or digested (gastric and subsequent duodenal digestion for 2 h) rLen c 3, patient sera containing sIgE were selected (Table S3). Intact and treated rLen c 3 samples were coated in wells of 96-well plates (0.5 μg/well), and ELISA was performed as described above. Sera samples from non-allergic individuals were used as a negative control.

[5] = target: T1, rLen c 3 (Lens culinaris, UniProt A0AT29); assay: TNS displacement lipid binding assay; design: species or system lentil; conditions: for IC50: 25 °C, 4 μM TNS, 4 μM rLen c 3, read-out: IC50 (TNS displacement)
T1 construct: with the formation of the large fragment 1–80 and the protein without C-terminal Phe93; His8-TrxL (octahistidine-thioredoxin carrier) (N, cleaved yes); made in house; host or cells: Escherichia coli BL-21 (DE3)
T1 sequence (A0AT29 26-118): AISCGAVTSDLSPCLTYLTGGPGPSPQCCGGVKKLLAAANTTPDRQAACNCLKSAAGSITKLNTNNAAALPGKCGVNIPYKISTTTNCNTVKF
Protocol: The ability of rLen c 3 to bind lipids was assayed by monitoring the displacement of the fluorescent probe TNS. Fluorescence intensity was measured at 25 °C with a F-2710 spectrofluorimeter (Hitachi, Tokyo, Japan), using a […] slit width for both excitation (λ = 320 nm) and emission (λ = 437 nm) and the measurement taken for no longer than 1.5–2 s. After equilibrating TNS (4 μM) in 10 mM phosphate buffer, pH 7.4, or 150 mM sodium chloride, pH 2.5, for 2 min with gentle mixing, the 2 mM of competing ligand was titrated into the 2 mL of 4 μM rLen c 3 solution in 1 μL aliquots. The resulting data were fitted by using a sigmoidal curve-fitting in GraphPad Prism from which the concentration able to displace 50% of the TNS (IC50) was calculated. The dependence of the ligand binding on temperature was performed at 20, 40, 60, 90, and 20 °C, after cooling down as previously described. Temperature was checked with a temperature probe in the cuvette. Each experiment was performed in triplicate, independently.

[6] = target: T1, rLen c 3; assay: Effect of lipid ligands on secondary structure and thermostability of rLen c 3 (CD spectroscopy); assay type: physicochemical, lentil; conditions: pH 7.4, ligand 1 mM
Protocol: as §1

[7] = target: T1, rLen c 3; assay: Effect of lipid ligands on gastrointestinal digestion of rLen c 3; assay type: in vitro ADME, lentil
Protocol: as §2

[8] = target: T1, rLen c 3; assay: ELISA of IgE binding to rLen c 3 preincubated with lipid ligands; design: species or system lentil; conditions: preincubation with 60 μM ligand, sera with 10 μM ligand; sera from 10 patients; p > 0.1
Protocol: To study the effects of lipid ligands on IgE binding capacity of allergen, rLen c 3 was covalently bound to Nunc Immobilizer Amino surface plates (Thermo Scientific, Waltham, MA, USA), according to peptide coupling protocol. rLen c 3 solution (100 μg/mL) in 100 mM sodium carbonate, pH 9.6, was added to the wells; after that, the plates were incubated at 25 °C for 2 h. Then 10 mM ethanolamine at the same buffer was used for the plates post-coupling at 25 °C for 1 h. Pre-incubation with PBS or lipid ligand solutions in PBS at concentration of 60 μM was performed overnight at 4 °C. After that, the plates were incubated with selected sera in 1:4 dilution, overnight, at 4 °C, with the absence or presence of 10 μM lipid ligands, due to the reversibility of Len c 3-ligand complexes. Subsequent steps of ELISA were carried out as described above. This experiment was performed twice, independently.

[9] = 20 °C end (after cooling down from 98.5 °C), pH 7.4

## rLen c 3: recombinant lentil allergen Len c 3, a lipid transfer protein, overexpressed in Escherichia coli
[1]; [9]
  random (secondary structure estimation from Far-UV CD spectra): 34.9%
  turn (secondary structure estimation from Far-UV CD spectra): 21.8%
  α-helix (secondary structure estimation from Far-UV CD spectra): 5.6%
  β-sheet (secondary structure estimation from Far-UV CD spectra): 37.7%
[1]; 20 °C, pH 7.4
  random (secondary structure estimation from Far-UV CD spectra): 30.3%
  α-helix (secondary structure estimation from Far-UV CD spectra): 28.4%
  β-sheet (secondary structure estimation from Far-UV CD spectra): 19.1%
[1]; 98.5 °C, pH 7.4
  Protein folding state on heating: almost completely unfolded
  random (secondary structure estimation from Far-UV CD spectra): 33.9%
  turn (secondary structure estimation from Far-UV CD spectra): 22.0%
  α-helix (secondary structure estimation from Far-UV CD spectra): 6.6%
  β-sheet (secondary structure estimation from Far-UV CD spectra): 37.4%
[1]; cooled down to 20 °C after 98.5 °C, pH 7.4
  Recovery of CD spectrum after cooling down: not recovered
[1]; pH 2.5 vs pH 7.4, 20 °C
  CD spectrum at acidic pH mimicking gastric juice: remains almost unchanged
[1]; pH 7.4, also shown in ref 17
  Temperature required for allergen denaturation: above 80 °C
[2]
  Stability to gastric digestion: remarkable stability
[3]; 30 min of duodenal digestion after 2 h gastric digestion
  Intact protein cleaved (densitometric gel analysis): more than 65%
[3]; 2 h of duodenal digestion after 2 h gastric digestion
  Intact protein cleaved (densitometric gel analysis): > 85%
[3]; 24 h of duodenal digestion
  rLen c 3 degradation: 100%
[3]; preheating at 100 °C for 30 min before digestion
  Effect of protein preheating on degradation: slightly increased an efficiency of the allergen degradation
[4]; 100 °C for 30 min, vs intact rLen c 3, patient sera 1:4
  IgE-binding capacity after heating: significantly (p < 0.001) reduced
[4]; all rPru p 3 IgE+ sera, compared with rPru p 3
  IgE-binding in rPru p 3 IgE+ sera: lower values than for rPru p 3
[4]; gastric and subsequent duodenal digestion for 2 h, vs intact rLen c 3, patient sera 1:4
  IgE-binding capacity after proteolytic digestion: significantly (p < 0.001) reduced

## CCCCCCCCCCCCCCCC(=O)OC[C@@H](O)COP(=O)(O)OCC(O)CO (stereo partly drawn) [LPPG, lyso-palmitoyl phosphatidylglycerol]
[5]; 10 mM phosphate buffer, pH 7.4
  IC50: 4.3 ± 0.2 µM
[5]; 150 mM sodium chloride, pH 2.5
  IC50: 4.3 ± 0.03 µM
[5]; pH 2.5 compared with pH 7.4
  Change of rLen c 3 affinity for the ligand at acidic pH: remained unchanged
[5]; pH 7.4, heated from 20 to 90 °C, then cooled down to 20 °C
  Ability of rLen c 3 to bind the ligand after heating and cooling down: almost completely restored
[6]; cooling down to 20 °C after 98.5 °C
  Recovery of rLen c 3 structure after cooling down in the presence of ligand: complete recovery of the native conformation
[6]; heating up to 98.5 °C
  Effect of ligand on rLen c 3 thermostability (resistance to thermal denaturation): most pronounced effect
[7]; 24 h of duodenal digestion, LTP to lipid molar ratio 1:4
  Degradation of rLen c 3 in the presence of ligand: ~ 55%
[7]; after 4 and 24 h, effect more pronounced with LPPC
  Effect of protein preheating before digestion in the presence of ligand on rate of allergen degradation: slightly increased
[7]; gastric then duodenal digestion, LTP to lipid molar ratio 1:4
  Effect of ligand on rLen c 3 degradation rate (proteolytic digestion): more pronounced
[8]
  Effect of ligand on IgE binding capacity of rLen c 3: small increase
